Assay [1] deals with PCDH15-CD1 C-terminal peptide (biotin-TTDS-…) (mouse). The assay is described as follows: SPR; harmonin fragments or full-length harmonin-a1 with C-terminal peptides; Fig. S10 and data not shown.
Assay [2] has as its target PCDH15-CD2 C-terminal peptide (biotin-TTDS-…) (mouse). The description is as above.
Assay [3] has as its target PCDH15-CD3 C-terminal peptide (biotin-TTDS-…) (mouse). Described as above.
Assay [4] addresses T1, PCDH15-CD1 C-terminal peptide (biotin-TTDS-GIDVQPHSQSTSL) (mouse).
T1 construct: C-terminal 13 aa of protocadherin-15 isoform CD1, including the PBM; source: synthetic peptide (Eurogentec); not shown: biotin, N-terminal, kept
T1 peptide: {Biotin-TTDS}-GIDVQPHSQSTSL
The assay is described as above. The following applies: both partners purified.

For assay [5], the target named is T2, PCDH15-CD2 C-terminal peptide (biotin-TTDS-GANSEQYNTAL) (mouse).
T2 construct: C-terminal 11 aa of protocadherin-15 isoform CD2, including the PBM; source: synthetic peptide (Eurogentec); not shown: biotin, N-terminal, kept
T2 peptide: {Biotin-TTDS}-GANSEQYNTAL
The assay is described as above. The following applies: both partners purified.

In assay [6] the target is T3, PCDH15-CD3 C-terminal peptide (biotin-TTDS-MGPWNSLHIPMTKL) (mouse).
T3 construct: C-terminal 14 aa of protocadherin-15 isoform CD3, including the PBM; source: synthetic peptide (Eurogentec); not shown: biotin, N-terminal, kept
T3 peptide: {Biotin-TTDS}-MGPWNSLHIPMTKL
The assay is described as above. The settings on record: both partners purified.

Assay [7] concerns the target T4, whirlin-NTR-PDZ1-Hp1 (aa residues 2-265) (mouse, UniProt Q80VW5-1 2-265).
T4 construct: extra 7 aa at the N-terminus of all recombinant proteins of the study; whirlin (long isoform, L-whirlin), residues 2-265: NTR (with HHD1), PDZ1 and hairpin Hp1; The methods call the 2-265 construct whirlin-NTR-PDZ1; also called NTR-PDZ1-Hp1 whirlin fragment; Nter-PDZ1-Hp1; source: E. coli BL21 (DE3) codonPlus-RIPL, purified (Glutathione Sepharose 4B, GST removed by TEV proteinase, SEC)
T4 sequence: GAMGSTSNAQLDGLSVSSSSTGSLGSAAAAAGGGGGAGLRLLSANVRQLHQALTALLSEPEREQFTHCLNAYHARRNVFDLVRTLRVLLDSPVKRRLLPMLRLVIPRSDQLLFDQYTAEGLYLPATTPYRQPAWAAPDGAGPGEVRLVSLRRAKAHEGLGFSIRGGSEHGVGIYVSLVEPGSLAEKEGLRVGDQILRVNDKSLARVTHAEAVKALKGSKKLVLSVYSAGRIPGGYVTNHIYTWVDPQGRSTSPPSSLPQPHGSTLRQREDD
The assay is described as follows: SPR; ProteOn XPR 36; N-terminally biotinylated peptides captured on a Neutravidin NLC sensor chip, whirlin fragments flowed as analytes at 20 μL/min for 2 min; 250 mM NaCl, 50 mM Tris pH 7.5, 0.5 mM TCEP; steady-state fit Req = (Rmax*C)/(Kd+C); mean of three experiments; Figure 4B shows the responses at 10 μM. The following applies: both partners purified. In general terms: Surface plasmon resonance follows binding to a sensor surface in real time, without labels.

For assay [8], the target named is T4, whirlin-NTR-PDZ1-Hp1 (aa residues 2-265). Described as above. The following applies: both partners purified. This is another data set of the same source.
For assay [9], the target named is T5, whirlin PDZ1-Hp (aa residues 137-246) (mouse, UniProt Q80VW5-1 137-246).
T5 construct: extra 7 aa at the N-terminus of all recombinant proteins of the study; whirlin, residues 137-246: PDZ1 with its hairpin extension Hp1; also called PDZ1 + Hp1; whirlin PDZ1-Hp1 fragment
T5 sequence: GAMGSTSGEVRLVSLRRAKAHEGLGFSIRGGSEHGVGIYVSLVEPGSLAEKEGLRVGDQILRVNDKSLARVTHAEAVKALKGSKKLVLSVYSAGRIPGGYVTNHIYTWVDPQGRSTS
Described as above. The settings on record: both partners purified.

The target in assay [10] is T6, whirlin-PDZ1 (aa residues 137-228) (mouse, UniProt Q80VW5-1 137-228).
T6 construct: extra 7 aa at the N-terminus of all recombinant proteins of the study; whirlin, residues 137-228: PDZ1 domain; also called whirlin PDZ1 domain alone; source: E. coli BL21 (DE3) codonPlus-RIPL, purified (Glutathione Sepharose 4B, GST removed by TEV proteinase, SEC)
T6 sequence: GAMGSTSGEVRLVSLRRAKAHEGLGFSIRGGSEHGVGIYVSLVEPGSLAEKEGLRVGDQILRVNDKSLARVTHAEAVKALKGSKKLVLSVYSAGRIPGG
Described as above. The following applies: both partners purified.

The target in assay [11] is T7, whirlin-PDZ2 (aa residues 272-368) (mouse, UniProt Q80VW5-1 272-368).
T7 construct: extra 7 aa at the N-terminus of all recombinant proteins of the study; whirlin, residues 272-368: PDZ2 domain; source: E. coli BL21 (DE3) codonPlus-RIPL, purified (Glutathione Sepharose 4B, GST removed by TEV proteinase, SEC)
T7 sequence: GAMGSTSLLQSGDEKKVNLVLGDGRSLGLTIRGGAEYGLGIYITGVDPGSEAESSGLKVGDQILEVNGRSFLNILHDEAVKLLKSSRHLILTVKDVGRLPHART
Described as above. The following applies: both partners purified.

The target in assay [12] is T8, whirlin-PDZ3 (aa residues 821-915) (mouse, UniProt Q80VW5-1 821-915).
T8 construct: extra 7 aa at the N-terminus of all recombinant proteins of the study; whirlin, residues 821-915: PDZ3 domain, common to L- and S-whirlin; also called whirlin PDZ3 domain
T8 sequence: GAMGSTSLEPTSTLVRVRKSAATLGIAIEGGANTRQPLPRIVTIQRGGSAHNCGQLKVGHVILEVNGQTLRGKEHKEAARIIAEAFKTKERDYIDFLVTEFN
The description is as above. The settings on record: both partners purified.

Assay [13] has as its target T9, whirlin-HHD1 (aa residues 30-121) (mouse, UniProt Q80VW5-1 30-121).
T9 construct: extra 7 aa at the N-terminus of all recombinant proteins of the study; whirlin, residues 30-121: harmonin-homology domain 1 (HHD1); also called HHD1 domain alone; source: E. coli BL21 (DE3) codonPlus-RIPL, purified (Glutathione Sepharose 4B, GST removed by TEV proteinase, SEC)
T9 sequence: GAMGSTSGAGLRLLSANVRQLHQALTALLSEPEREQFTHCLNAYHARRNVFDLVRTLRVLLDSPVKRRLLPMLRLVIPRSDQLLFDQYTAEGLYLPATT
The description is as above. The following applies: both partners purified.

The target of assay [14] is T10, whirlin-NTR (aa residues 2-147) (mouse, UniProt Q80VW5-1 2-147).
T10 construct: extra 7 aa at the N-terminus of all recombinant proteins of the study; also called entire NTR of whirlin (containing the HHD1 domain); source: E. coli BL21 (DE3) codonPlus-RIPL, purified (Glutathione Sepharose 4B, GST removed by TEV proteinase, SEC)
T10 sequence: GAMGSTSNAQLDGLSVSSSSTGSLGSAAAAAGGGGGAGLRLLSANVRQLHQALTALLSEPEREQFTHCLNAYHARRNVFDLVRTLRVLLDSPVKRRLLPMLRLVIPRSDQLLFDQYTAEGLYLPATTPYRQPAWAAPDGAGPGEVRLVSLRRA
Described as above. The settings on record: both partners purified.

The target of another assay is T11, CDH23 C-terminal peptide (Mus musculus, UniProt Q99PF4).
T11 chain: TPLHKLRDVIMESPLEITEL

No end group written: not given here. *: point of attachment. Biotin = O=C1N[C@H]2[C@H](CS[C@H]2CCCCC(=O)*)N1; TTDS = trioxatridecan-succinamic acid spacer

Broadly, the Kd is the free concentration of one partner at which half of the binding sites on the other are occupied at equilibrium, for simple one-to-one binding. Lower therefore signals tighter binding. “PDZ domains of harmonin in tandem association”: the Kd in [1], in assay [2] and in assay [3] was > 200 µM each time.

B1: harmonin-PDZ3 (aa residues 738-849) (domain or fragment)
chain: DPYSMFSPEQIAGKDVRLLRIKKEGSLDLALEGGVDSPVGKVVVSAVYEGGAAERHGGVVKGDEIMAINGKIVTDYTLAEAEAALQKAWNQGGDWIDLVVAVCPPKEYDDEL
As for B1, the Kd in assay [4], in assay [5] and in assay [6] was > 200 µM throughout.

B2: CDH23 C-terminal peptide (biotin-TTDS-VIMESPLEITEL) (peptide)
peptide: {Biotin-TTDS}-VIMESPLEITEL
notes: C-terminal residues of cadherin-23, including the PBM; source: synthetic peptide (Eurogentec); not shown: biotin, N-terminal, kept
Consider B2, for which the Kd is ~20 µM in [7]; 11.3 µM in assay [8]; 64 µM in [9]; 141 µM in assay [10]; > 1000 µM in [11]; 4.3 µM in assay [12]. Also, the Kd in assay [13] and in [14] was > 1000 µM throughout.

B3: whirlin PDZ3 (protein)
chain: TSTLVRVRKSAATLGIAIEGGANTRQPLPRIVTIQRGGSAHNCGQLKVGHVILEVNGQTLRGKEHKEAARIIAEAFKTKERDYIDFLVTE
In the case of B3, the Kd with CDH23 C-terminal peptide is ~4 µM.

B4: full-length harmonin-a1 (natural protein)
chain: MDRKVAREFRHKVDFLIENDAEKDYLYDVLRMYHQTMDVAVLVGDLKLVINEPNRLPLFDAIRPLIPLKHQVEYDQLTPRRSRKLKEVRLDRLHPEGLGLSVRGGLEFGCGLFISHLIKGGQADSVGLQVGDEIVRINGYSISSCTHEEVINLIRTKKTVSIKVRHIGLIPVKSSPEESLKWQYVDQFVSESGGVRGGLGSPGNRTTKEKKVFISLVGSRGLGCSISSGPIQKPGIFVSHVKPGSLSAEVGLETGDQIVEVNGIDFTNLDHKEAVNVLKSSRSLTISIVAGAGRELFMTDRERLEEARQRELQRQELLMQKRLAMESNKILQEQQEMERQRRKEIAQKAAEENERYRKEMEQISEEEEKFKKQWEEDWGSKEQLILPKTITAEVHPVPLRKPKSFGWFYRYDGKFPTIRKKAKEKKKAKYDSLQDLRKNKKELEFEQKLYKEKEEMLEKEKQLKINRLAQEVSETEREDLEESEKTQYWVERLCQTRLEQISSAENEIPEMTTGPPPPPPSVSPLAPPLRRFAGGIHLHTTDLDDIPLDMFYYPPKTPSALPVMPHPPSVNSPSKVPAPPVLPSSGHVSSSSSPWVQRTPPPIPIPPPPSIPTQDLTPTRPLPSALEEALGNHPFRTGDPGHPADDWEANTHSGKPSSSPTTERSFPPAPKTFCPSPQPPRGPGVSTISKPVMVHQEHNFVYRPAVKSEVLPQEMLKRMVVYQTAFRQDFRKYEEGFDPYSMFSPEQIAGKDVRLLRIKKEGSLDLALEGGVDSPVGKVVVSAVYEGGAAERHGGVVKGDEIMAINGKIVTDYTLAEAEAALQKAWNQGGDWIDLVVAVCPPKEYDDELSSLPSSAAESPQLARKQLEAYEPVCRHGFFLQLEPTNLLLKSRERNQTDPSWRPASSAPSP
For B4, the Kd in [4], in assay [5] and in [6] was > 200 µM in each case.

The record behind these values is article PMC7532178, “Interaction of protocadherin-15 with the scaffold protein whirlin supports its anchoring of hair-bundle lateral links in cochlear hair cells” (Scientific Reports, 2020).
